Consider 4 compounds from US20110218114A1, “NUCLEOTIDE TRIPHOSPHATE WITH AN ELECTROACTIVE LABEL CONJUGATED TO THE GAMMA PHOSPHATE” (priority 2007, published 2011).

What all share (format): biochemical
One experiment addresses T1, HER2/ErbB2 (Homo sapiens, UniProt P04626).
T1 construct: purchased Cell Signalling Technology (MA, USA)
As to the kind of experiment: Electrochemical (CV) Fc-ATP phosphorylation assay, substrate peptide immobilized on gold microelectrode, HER2/ErbB2. Conditions: for phosphorylation of immobilized peptide by HER2/ErbB2 (anodic current response): control peptides, FIG. 13C. As to the method:
(§1) The covalent immobilization of substrate peptides on the gold microelectrode surface using succinimide-esters of lipoic acid included the following steps: (a) incubation of the bare gold microelectrode with 5 mM NHS-lipoic acid ester in ethanol for 15 h; (b) incubation of the N-Hydroxysuccinimide (NHS)-lipoic acid-modified surface with the substrate peptides in the presence of 2 mM N-(3-Dimethylaminopropyl)-N′-ethylcarbodiimide (EDC) in 0.1 M 2-(N-Morpholino) ethanesulfonic acid (MES, pH 6) for 2 h, (c) incubation of the peptide-modified electrodes with Mercaptopolyethylene glycol 5′000 monomethyl ether (PEG-thiol 5′000) solution (1:100 v/v) in ethanol for 10 min.
(§2) The electrochemical data from the CV measurements are obtained as charge density (J) per test. The concentration of Fc-ATP for the kinase activity determinations was 100 μM, for CK2 and 200 μM for Abl1-T315I and HER2-ErbB2. Here, the detailed description of the calculation procedure will be given for CK2-catalysed phosphorylation reactions. The reaction volume is 25 μL, which leads to 2.5 nmole Fc-ATP per test. Then, the specific electro-activity (SE) of Fc-ATP (J/nmole Fc-ATP) would be calculated as follows: […]
(§3) The apparent inhibition constants Ki′ were determined by fitting equation (3) to the experimental data.
(§4) where V is the rate, V0 is the rate in the absence of the inhibitor, [I] is the inhibitor concentration and Ki′ is the apparent inhibition constant. The true inhibition constants Ki were calculated by correction of Ki′ according to Equation (4): […]
(§5) where [S] is the surface density of the immobilized substrate peptide and Km is the Michaelis-Menten constant. The surface density conditions of the immobilized substrate peptide were changed between 1, 5, 10, 15 and 20 pmol/cm2. The initial time dependence of the kinase reactions were determined at these varying peptide density conditions. The phosphorylation reaction was stopped after 5, 15, 30, 60, 90, 120 and 150 min, and the measurement of the attached Fc molecules was carried out. […] If the y is set for 0 and the equation is solved for x, x intercept becomes equal to −1/Km.

The target in a further experiment is T2, Abl1-T315I (Homo sapiens, UniProt P00519, T315I).
T2 construct: purchased Cell Signalling Technology (MA, USA)
Description: Electrochemical (CV) Fc-ATP phosphorylation assay, substrate peptide immobilized on gold microelectrode, Abl1-T315I. Conditions: for phosphorylation of immobilized peptide by Abl1-T315I (anodic current response): control peptides, HeLa cell lysate, FIG. 12C. As to the method: as §1
Abl1-T315I kinase assay buffer included 60 mM HEPES (pH 7.5), 5 mM MgCl2, 5 mM MnCl2, 3 μM Na3VO4, 400 μM ATP, peptide substrate (STP) and the kinase in a total reaction volume of 25 μL. Purified recombinant human Abl1-T315I mutant kinase and its substrate peptide Signal Transduction Protein (STP, EGIYDVP) were purchased from Cell Signalling Technology (MA, USA). The substrate peptide modified electrodes were incubated at 37° C. for 2 h. After following the same washing procedures as for CK2, the CV measurements were recorded using the same parameters as described above.
(§6) The electrochemical data from the CV measurements are obtained as charge density (J) per test. […] Here, the detailed description of the calculation procedure will be given for CK2-catalysed phosphorylation reactions. The reaction volume is 25 μL, which leads to 2.5 nmole Fc-ATP per test. Then, the specific electro-activity (SE) of Fc-ATP (J/nmole Fc-ATP) would be calculated as follows: […]
(§7) where V is the rate, V0 is the rate in the absence of the inhibitor, [I] is the inhibitor concentration and Ki′ is the apparent inhibition constant.
as §5

Another experiment concerns the target CK2α′ (Homo sapiens, UniProt P19784). Description: Electrochemical (CV) Fc-ATP phosphorylation assay, substrate peptide immobilized on gold microelectrode, CK2α′. As to the method: as §1
(§8) The substrate peptide modified electrodes were incubated at 37° C. for 2 h.
as §2, §3, §4, §5

In the next experiment the target is CK2α (Homo sapiens, UniProt P68400). As to the kind of experiment: Electrochemical (CV) Fc-ATP phosphorylation assay, substrate peptide immobilized on gold microelectrode, CK2α. As to the method: as §1, §8, §6, §7, §5
Chain of CK2α (P68400 whole entry): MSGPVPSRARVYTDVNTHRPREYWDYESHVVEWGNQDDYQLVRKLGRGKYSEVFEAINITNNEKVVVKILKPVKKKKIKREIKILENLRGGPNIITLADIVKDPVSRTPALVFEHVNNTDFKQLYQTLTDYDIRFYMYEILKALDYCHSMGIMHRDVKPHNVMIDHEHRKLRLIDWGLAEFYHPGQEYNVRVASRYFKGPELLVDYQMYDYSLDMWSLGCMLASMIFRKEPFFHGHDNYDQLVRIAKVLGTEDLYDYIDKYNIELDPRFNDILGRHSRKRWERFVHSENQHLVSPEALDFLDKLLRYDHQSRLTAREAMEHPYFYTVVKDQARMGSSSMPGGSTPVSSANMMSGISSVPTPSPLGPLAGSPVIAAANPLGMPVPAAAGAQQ
The mark [1] stands for this setting: Abl1-T315I, immobilized substrate peptide, Lineweaver-Burk.
[2] abbreviates: CK2α′, immobilized substrate peptide, Lineweaver-Burk.
The mark [3] stands for this setting: HER2/ErbB2, immobilized substrate peptide, Lineweaver-Burk.

Chain of CK2α′ (P19784 whole entry): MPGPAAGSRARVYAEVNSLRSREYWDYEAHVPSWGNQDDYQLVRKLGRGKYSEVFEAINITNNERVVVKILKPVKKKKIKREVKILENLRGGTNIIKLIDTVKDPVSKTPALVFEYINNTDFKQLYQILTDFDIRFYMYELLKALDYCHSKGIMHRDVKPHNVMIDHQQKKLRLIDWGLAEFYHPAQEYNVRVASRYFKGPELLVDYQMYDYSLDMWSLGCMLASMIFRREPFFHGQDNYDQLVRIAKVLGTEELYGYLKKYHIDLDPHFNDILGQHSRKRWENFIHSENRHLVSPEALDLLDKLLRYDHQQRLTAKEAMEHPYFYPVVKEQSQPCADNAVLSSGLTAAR

As usually defined, the Km is the substrate concentration at which the rate is half of its maximum. Usually Vmax stands for the rate approached at saturating substrate. Consider “EGIYDVP [Abl1-T315I substrate peptide Signal Transduction Protein]”, for which the “phosphorylation of immobilized peptide by HER2/ErbB2 (anodic current response)” value in the experiment with HER2/ErbB2 was “slight increase in the current responses”. In addition, the Vmax/Kmax with Abl1-T315I (Abl1-T315I, immobilized substrate peptide) came out at 9.18. In the experiment with Abl1-T315I (setting [1]), the Km is 182 µM and the Vmax was 1.67 µmol/min/mg. Also, the “phosphorylation of immobilized peptide by CK2 (current response)” value with CK2α′ (control peptide in presence of cell lysate, FIG. 10B-c) is “did not catalyze phosphorylation”.

For the compound RRRDDDSDDD [CK2 peptide substrate], the “phosphorylation of immobilized peptide by HER2/ErbB2 (anodic current response)” value in the experiment with HER2/ErbB2 is recorded as “did not catalyze phosphorylation”. Besides, the Vmax/Kmax with CK2α is recorded as 22.64; in the experiment with CK2α′ (CK2α′, immobilized substrate peptide), 18.16. In addition, the Km with CK2α (Lineweaver-Burk) turned out to be 87 µM; with CK2α′ (setting [2]), 98 µM. Also, the Vmax with CK2α (Lineweaver-Burk) is 1.97 µmol/min/mg; with CK2α′ (setting [2]) it was 1.78 µmol/min/mg. For the same compound, the figures for the “phosphorylation of immobilized peptide by Abl1-T315I (anodic current response)” value with Abl1-T315I and with Abl1-T315I (listed as CK2 substrate peptide) were “did not catalyze phosphorylation” and “No significant current responses”, respectively.

For `Brc1c(Br)c(Br)c2[nH]nnc2c1Br` [(1), 4,5,6,7-Tetrabromo-2-azabenzimidazole], at Abl1-T315I (EGIYDVP peptide exposed to inhibitor, FIG. 11C-b), the “inhibition of EGIYDVP phosphorylation (specificity control)” value was “not inhibited”.

For the compound “DNEYFYV [FLT3 substrate peptide for HER2/ErbB2]”, the Vmax/Kmax with HER2/ErbB2 (HER2/ErbB2, immobilized substrate peptide) was 7.41. In the experiment with HER2/ErbB2 (setting [3]), the Km turned out to be 208 µM and the Vmax came to 1.54 µmol/min/mg. Further, the “phosphorylation of immobilized peptide by Abl1-T315I (anodic current response)” value in the experiment with Abl1-T315I is “Low current responses”.
